From US20200369765A1 (INNATE PHARMA, published 2020)

B1: mAbA (antibody, human IgG1, V domains shown)
VH: QVQLQQPGAELVKPGSPVKLSCKASYFTFTSYWMHWVRQRPGQGLEWIGEINPSNGHTNYNEKFESKATLTVDRSSSTAYMQLSSLTSEDSAVFYCANGVESYDFDDALDYWGQGTSVTVSS
VL: DIQMTQTTSSLSASLGDRVTISCRASQDINNYLNWYQQKPDGTIKLLIYYTSRLHSGVPSRFSGSGSGTDYSLTINNLEQEDIATYFCQQGNTLPFTFGGGTKLEIK
B2: mAbC (antibody, human IgG1, V domains shown)
VH: QIQLVQSGPELKKPGETVKISCKASGYTFTNYEMNWVKEAPGKGLKWMGWINTYTGESTYADDFKGRFAFSLETSASTVYLQINNLKDEDVATYFCVRDDYGRSYGFAYWGQGTLVTVSA
VL: NIVLTQSPASLTVSLGQRANISCRASESVDSYGNSFMHWYQQKPGQPPKLLIYLASKLESGVPARFSGSGSRTDFTLTIDPVETDDAATYYCHQNNEDPPWTFGGGTKLEIK
B3: mAb1 (antibody, human IgG1, V domains shown)
VH: DVQLQESGPGLVKPSQSLSLTCTVTGYSITGGFAWNWIRQFPGNTLEWMGYIGYGGSTSYNPSLNSRISITRDTSKNHFFLQFNSVTTDDSATYYCARGDYLFAYWGQGTLVTVSA
VL: DIVMTQSHKFMSTSVGDRVSITCKASQDVNTAVAWYQQKPGQSPKLLIYSASYRYTGVPDRFTGSGSGTDFTFTISSVQAEDLAVYYCQQHYSTPRTFGGGTKLEIK
B4: mAb2 (antibody, human IgG1, V domains shown)
VH: EVQLQESGPGLVKPSQSLSLTCTVTGYSITGGFAWNWIRQFPGNTLEWMGYIGYGGSTSYNPSLNSRISITRDTSKNHFFLQFNSVTTEDSATYYCARGDYLFAYWGQGTLVTVSA
VL: DIVMTQSHKFMSTSVGDRVSITCKASQDVNTAVAWYQQKPGQSPKLLIYSASYRYTGVPDRFTGSGSGTDFTFTISSVQAEDLAVYYCQQHYSTPRTFGGGTKLEIK
B5: mAb3 (antibody, human IgG1, V domains shown)
VH: EVQLLETGPGLVKPSQSLSLTCTVTGYSITGGFAWNWIRQFPGNTLEWMGYIGYGGSTSYNPSLNSRISITRDTSKNHFFLQFNSVTTEDSATYYCARGDYLFAYWGQGTLVTVSA
VL: DILMTQSPASLSASVGETVSITCRASGNIHNYLAWYLQRQGKSPQLLVYNAKTLADGVPSRFSGTGSGTQFSLKINSLQPEDFGSYYCQHFWSTPRTFGGGTKLEIK
B6: mAbB (antibody, human IgG1, V domains shown)
VH: QVQLQQPGAELVKPGASVKLSCKASVYTFTSYWMHWVKQRPGQGLEWIGEINPSNGHTNYNEKFKTKAKLTVDKSSSTAYMQLSSLTSEDSAVYFCANGVETYDFDDAMDYWGQGTSVTVSS
VL: DIQMTQTTSSLSASLGDRVTISCRASQDINNYLNWYQQKPDGTVKLLIYFTSRLHSGVPSRFSGSGSGTDYSLTISNLEQEDIATYFCQQGDTFPFTFGGGTKLEIK
B7: mAbE (antibody, human IgG1, V domains shown)
VH: DVQLVESGGGLVQPGGSRKLSCAASGFTFSTFGMHWVRQAPEKGLEWVAYISSGSNAIYYADTVKGRFTISRDNPKNTLFLQMTSLRSEDTAMYYCASPGYGAWFAYWGQGTLVTVSA
VL: ENVLTQSPAIMSASPGEKVTMTCRASSSVSSAYLHWYQQKSGASPKLWIYSTSNLASGVPARFSGSGSGTSYSLTISSVEAEDAATYYCQQYSAYPYTFGGGTKLEIK
B8: mAbF (antibody, human IgG1, V domains shown)
VH: QVQLQQSGPEVVRPGVSVKISCKGSGYTFTDYSMHWVKQSHAKSLEWIGVISTYNGNTNYNQKFKGKATMTVDKSSSTAYMELARLTSEDSAIYYCARRGYYGSSSWFGYWGQGTLVTVSA
VL: DIVMTQSQKFMSTSVGDRVSVTCKASQNVGTDVAWYQQKPGQSPEALIYSASYRYSGVPDRFTGSGSGADFTLTISNVQSEDLAEYFCQQYNSFPYTFGGGTKLEIK

Legend:
Human Siglec-7 [1] = target: T1, Human Siglec-7 (human, UniProt Q9Y286 19-467); assay: flow cytometry, CHO transfectants
T1 construct: Expressed on transfected CHO cells; also called huSiglec-7; CD328

Human Siglec-9 mutant M2 = target: T2, Human Siglec-9 mutant M2 (human, UniProt Q9Y336 18-463); assay: flow cytometry, HEK293T transfectants
T2 construct: Expressed on HEK293T cells; also called Mutant 2

Human Siglec-9 mutant M5 = target: T3, Human Siglec-9 mutant M5 (human, UniProt Q9Y336 18-463); assay: flow cytometry, HEK293T transfectants
T3 construct: Expressed on HEK293T cells; also called Mutant 5

Human Siglec-9 mutant M9 [2] = target: T4, Human Siglec-9 mutant M9 (human, UniProt Q9Y336 18-463); assay: flow cytometry, HEK293T transfectants
T4 construct: Expressed on HEK293T cells; also called Mutant 9

[3] = target: T5, Human Siglec-9 mutant M10 (human, UniProt Q9Y336 18-463); assay: flow cytometry, HEK293T transfectants
T5 construct: Expressed on HEK293T cells; also called Mutant 10

[4] = target: T6, Human Siglec-9 mutant M11 (human, UniProt Q9Y336 18-463); assay: flow cytometry, HEK293T transfectants
T6 construct: Expressed on HEK293T cells; also called Mutant 11

Human Siglec-9 [5] = target: T7, Human Siglec-9 (human, UniProt Q9Y336 18-463); assay: flow cytometry titration on moDC vs neuraminidase-treated moDC
T7 construct: On transfected CHO cells; also on YTS and KHYG-1 transfectants, primary NK cells and moDC; also called huSiglec-9; CD329
Procedure: (§1) moDC were desialylated for 2 hours with 25 mU neuraminidase (Roche Diagnostics).
(§2) Binding on moDCs and neuraminidase treated moDCs was tested in a titration experiment by flow cytometry. Cells were incubated 1h in Staining Buffer (SB) with primary antibodies at 10 ug/ml and a series of dilution of 1:10. They were washed two times with SB, then incubated 30 min with a Goat F(ab′)² Anti-Human IgG (Fc) PE (Jackson ImmunoResearch), and washed twice with SB.

[6] = target: T8, Human Siglec-9 N-terminal V-set Ig-like domain (human); assay: flow cytometry, HEK293T cells expressing single Siglec-9 domains
T8 construct: expressed on HEK293T cells

Human Siglec-9 [7] = target: T7, Human Siglec-9; assay: flow cytometry titration on neuraminidase-treated moDCs, goat F(ab')2 anti-human IgG (Fc) PE; table under the right panel
Procedure: as §1, §2

Human Siglec-9 [8] = target: T7, Human Siglec-9; assay: flow cytometry titration on untreated monocyte-derived dendritic cells (moDCs), goat F(ab')2 anti-human IgG (Fc) PE; table under the left panel
Procedure: as §2

Human Siglec-7 [9] = target: T1, Human Siglec-7; assay: flow cytometry, CHO transfectants; remark: listed apart in the source
Procedure: (§3) Binding of antibodies on human Siglec-7, human Siglec-9 and Cynomolgus Siglec-9 was tested by titration experiment by flow cytometry on CHO cells transfected with human Siglec-7 and human Siglec-9 and Cynomolgus Siglec-9. Cells were incubated 1h in Staining Buffer (SB) with primary antibodies at 20 ug/ml and a series of dilution of 1:5. They were washed three times with SB, then incubated 30 min with a goat F(ab′)² Anti-human IgG (Fc) PE (Beckman Coulter #1M05510), and washed twice with SB.

Human Siglec-9 [10] = target: T7, Human Siglec-9; assay: flow cytometry, CHO transfectants
Procedure: as §3

Cynomolgus Siglec = target: T9, Cynomolgus Siglec (cynomolgus); assay: flow cytometry, CHO transfectants
T9 construct: Expressed on transfected CHO cells; also called Siglec-Cyno; cynoSiglec
Procedure: as §3

Human Siglec-9 mutant M9 [11] = target: T4, Human Siglec-9 mutant M9; assay: flow cytometry, HEK293T transfectants; '-' indicates full loss of binding
[12] = target: T5, Human Siglec-9 mutant M10; assay: as above
[13] = target: T6, Human Siglec-9 mutant M11; assay: as above
Siglec-7 Fc protein = target: T10, Siglec-7 Fc protein (human); assay: ELISA, blocking: Siglec-7 Fc captured on protein A, mAb dilution series, then biotinylated polymer Sia2, streptavidin-peroxidase (top panel); partial inhibition
T10 construct: Produced in CHO cells; also called human Siglec-7 Fc
Procedure: (§4) Blocking of the interaction between Siglec-7 and -9 and sialylated ligands by anti Siglec-7/9 antibodies was tested on ELISA assays. Siglec proteins were Siglec-7 human Fc and Siglec-9 Human Fc recombinant proteins, and ligands were biotinylated polymers with sialylated trisaccharides (Neu5Aca2-3Galb1-4GcNAcb-PAA-biotin Glycotech #01-077 referred to as “Sia1” and 6′-Sialyllactose-PAA-biotin Glycotech #01-039 (referred to as “Sia2”). Briefly, Protein A was coated on ELISA plates over night at 4° C. After 3 washes and saturation, Siglec-7 Fc and Siglec-9 Fc were added at 0.8 μg/well at RT for 1H30. After 3 washes, mAbs were added at 20 ug/ml and a series of dilution of 1:5. After 3 washes, biotinylated sialylated polymers were added for 3 hours at room temperature. After 3 washes, Streptavidin-Peroxidase (Beckman) was added at 1:1000. […] The absorbance was read at 450 nm.

Siglec-9 Fc protein = target: T11, Siglec-9 Fc protein (human); assay: ELISA, blocking: Siglec-9 Fc captured on protein A, mAb dilution series, then biotinylated polymer Sia1 (Neu5Aca2-3Galb1-4GlcNAcb-PAA-biotin), streptavidin-peroxidase (top panel)
T11 construct: Produced in CHO cells; also called human Siglec-9 Fc
Procedure: as §4

T4 sequence (Q9Y336 other isoform, or with tags, fused parts or gaps mutant): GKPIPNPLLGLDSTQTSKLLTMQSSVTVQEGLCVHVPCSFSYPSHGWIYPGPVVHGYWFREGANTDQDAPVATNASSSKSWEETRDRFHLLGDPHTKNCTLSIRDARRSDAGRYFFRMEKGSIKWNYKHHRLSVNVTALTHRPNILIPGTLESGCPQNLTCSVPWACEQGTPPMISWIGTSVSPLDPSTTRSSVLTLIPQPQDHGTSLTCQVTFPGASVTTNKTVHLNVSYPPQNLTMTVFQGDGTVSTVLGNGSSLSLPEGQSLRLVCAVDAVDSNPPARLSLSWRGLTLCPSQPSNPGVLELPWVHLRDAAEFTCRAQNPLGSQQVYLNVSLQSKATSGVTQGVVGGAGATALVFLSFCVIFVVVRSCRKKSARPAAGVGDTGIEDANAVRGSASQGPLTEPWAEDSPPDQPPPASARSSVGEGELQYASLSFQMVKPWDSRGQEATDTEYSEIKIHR
T1 sequence (Q9Y286 19-467): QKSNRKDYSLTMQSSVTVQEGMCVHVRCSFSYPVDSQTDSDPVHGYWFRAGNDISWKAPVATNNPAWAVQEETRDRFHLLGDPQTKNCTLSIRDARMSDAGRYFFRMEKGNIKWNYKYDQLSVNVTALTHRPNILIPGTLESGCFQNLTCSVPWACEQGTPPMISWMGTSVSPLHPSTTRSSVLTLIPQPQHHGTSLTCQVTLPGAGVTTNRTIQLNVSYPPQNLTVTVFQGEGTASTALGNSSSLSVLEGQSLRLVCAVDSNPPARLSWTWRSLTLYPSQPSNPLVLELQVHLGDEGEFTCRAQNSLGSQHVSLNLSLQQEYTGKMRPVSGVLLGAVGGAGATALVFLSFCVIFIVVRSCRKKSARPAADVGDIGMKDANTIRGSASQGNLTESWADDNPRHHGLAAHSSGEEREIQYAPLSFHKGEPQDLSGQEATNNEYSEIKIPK
T2 sequence (Q9Y336 other isoform, or with tags, fused parts or gaps mutant): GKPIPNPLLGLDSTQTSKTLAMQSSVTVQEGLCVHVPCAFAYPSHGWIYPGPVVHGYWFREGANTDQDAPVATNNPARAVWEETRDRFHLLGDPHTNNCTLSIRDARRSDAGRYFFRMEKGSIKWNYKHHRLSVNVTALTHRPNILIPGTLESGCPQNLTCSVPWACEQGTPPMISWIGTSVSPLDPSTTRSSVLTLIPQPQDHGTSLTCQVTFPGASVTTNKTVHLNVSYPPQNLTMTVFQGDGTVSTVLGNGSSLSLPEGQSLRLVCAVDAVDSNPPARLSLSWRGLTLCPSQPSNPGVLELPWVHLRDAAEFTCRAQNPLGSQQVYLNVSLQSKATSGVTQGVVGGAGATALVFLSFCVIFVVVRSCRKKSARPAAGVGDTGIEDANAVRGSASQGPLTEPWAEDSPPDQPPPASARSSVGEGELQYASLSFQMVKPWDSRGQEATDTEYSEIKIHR
T3 sequence (Q9Y336 other isoform, or with tags, fused parts or gaps mutant): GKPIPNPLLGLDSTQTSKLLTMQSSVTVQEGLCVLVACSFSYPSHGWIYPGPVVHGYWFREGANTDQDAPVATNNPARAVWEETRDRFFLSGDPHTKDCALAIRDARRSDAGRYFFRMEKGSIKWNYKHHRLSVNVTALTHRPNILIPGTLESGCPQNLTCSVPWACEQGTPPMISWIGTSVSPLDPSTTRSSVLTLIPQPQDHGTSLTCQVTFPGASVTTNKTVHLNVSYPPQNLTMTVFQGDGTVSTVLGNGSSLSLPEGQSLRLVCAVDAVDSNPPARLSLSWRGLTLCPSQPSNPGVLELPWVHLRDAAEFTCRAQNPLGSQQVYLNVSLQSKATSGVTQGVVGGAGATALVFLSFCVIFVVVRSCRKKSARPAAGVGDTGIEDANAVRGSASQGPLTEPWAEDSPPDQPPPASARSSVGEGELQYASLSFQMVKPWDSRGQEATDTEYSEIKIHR
T6 sequence (Q9Y336 other isoform, or with tags, fused parts or gaps mutant): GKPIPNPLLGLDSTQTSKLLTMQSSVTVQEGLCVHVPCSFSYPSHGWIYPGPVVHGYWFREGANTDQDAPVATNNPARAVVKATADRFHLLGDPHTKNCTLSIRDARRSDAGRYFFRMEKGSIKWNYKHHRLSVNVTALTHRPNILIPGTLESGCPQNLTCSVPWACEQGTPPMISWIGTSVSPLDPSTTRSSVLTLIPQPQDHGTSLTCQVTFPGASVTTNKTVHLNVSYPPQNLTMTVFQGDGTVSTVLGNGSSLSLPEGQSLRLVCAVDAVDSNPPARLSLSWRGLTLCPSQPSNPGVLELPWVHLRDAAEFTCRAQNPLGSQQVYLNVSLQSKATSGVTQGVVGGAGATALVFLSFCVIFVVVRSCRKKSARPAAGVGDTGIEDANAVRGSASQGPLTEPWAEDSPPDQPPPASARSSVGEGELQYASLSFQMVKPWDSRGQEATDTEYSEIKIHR
T9 sequence (chain, as listed by the source limits assumed): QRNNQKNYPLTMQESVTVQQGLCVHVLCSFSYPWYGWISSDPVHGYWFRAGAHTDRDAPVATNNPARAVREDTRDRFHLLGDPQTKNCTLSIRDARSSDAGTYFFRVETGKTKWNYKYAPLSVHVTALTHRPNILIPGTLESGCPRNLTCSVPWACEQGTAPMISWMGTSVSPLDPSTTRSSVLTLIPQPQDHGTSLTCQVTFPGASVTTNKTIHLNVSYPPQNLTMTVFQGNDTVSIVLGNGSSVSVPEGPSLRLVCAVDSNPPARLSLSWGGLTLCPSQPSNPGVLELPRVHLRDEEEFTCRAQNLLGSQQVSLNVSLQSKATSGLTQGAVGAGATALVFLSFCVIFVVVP
T5 sequence (Q9Y336 other isoform, or with tags, fused parts or gaps mutant): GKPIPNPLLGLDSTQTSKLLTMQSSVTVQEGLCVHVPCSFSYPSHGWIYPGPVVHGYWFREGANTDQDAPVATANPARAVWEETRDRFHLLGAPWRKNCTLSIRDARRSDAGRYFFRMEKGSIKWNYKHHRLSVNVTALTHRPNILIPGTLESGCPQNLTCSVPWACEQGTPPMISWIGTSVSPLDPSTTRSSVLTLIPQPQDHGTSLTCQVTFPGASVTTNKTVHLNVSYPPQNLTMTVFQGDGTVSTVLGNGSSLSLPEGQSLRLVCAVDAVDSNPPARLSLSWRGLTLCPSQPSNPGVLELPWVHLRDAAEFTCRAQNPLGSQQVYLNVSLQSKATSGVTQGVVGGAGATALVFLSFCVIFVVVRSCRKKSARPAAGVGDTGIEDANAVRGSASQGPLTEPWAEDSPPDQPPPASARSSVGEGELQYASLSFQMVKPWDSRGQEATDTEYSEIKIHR
T7 sequence (Q9Y336 18-463): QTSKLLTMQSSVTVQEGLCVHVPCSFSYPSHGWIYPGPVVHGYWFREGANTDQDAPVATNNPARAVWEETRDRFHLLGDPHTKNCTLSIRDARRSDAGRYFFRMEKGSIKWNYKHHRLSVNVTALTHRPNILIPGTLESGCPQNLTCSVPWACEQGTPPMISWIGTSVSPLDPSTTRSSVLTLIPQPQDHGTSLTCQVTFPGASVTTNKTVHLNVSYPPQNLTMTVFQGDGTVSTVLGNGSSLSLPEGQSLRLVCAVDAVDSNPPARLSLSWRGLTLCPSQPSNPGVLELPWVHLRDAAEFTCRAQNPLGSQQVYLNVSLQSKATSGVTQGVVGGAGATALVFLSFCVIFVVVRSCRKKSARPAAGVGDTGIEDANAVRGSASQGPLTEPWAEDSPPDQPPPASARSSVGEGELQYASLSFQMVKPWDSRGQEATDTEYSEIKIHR
T8 sequence (chain, as listed by the source limits assumed): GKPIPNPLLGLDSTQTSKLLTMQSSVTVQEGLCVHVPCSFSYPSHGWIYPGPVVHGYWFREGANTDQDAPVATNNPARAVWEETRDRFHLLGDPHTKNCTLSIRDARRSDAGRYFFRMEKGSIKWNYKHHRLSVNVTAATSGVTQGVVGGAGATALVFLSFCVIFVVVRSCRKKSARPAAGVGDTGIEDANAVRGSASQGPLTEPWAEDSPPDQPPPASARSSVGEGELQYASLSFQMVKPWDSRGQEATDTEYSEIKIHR
T10 sequence (chain, as listed by the source limits assumed): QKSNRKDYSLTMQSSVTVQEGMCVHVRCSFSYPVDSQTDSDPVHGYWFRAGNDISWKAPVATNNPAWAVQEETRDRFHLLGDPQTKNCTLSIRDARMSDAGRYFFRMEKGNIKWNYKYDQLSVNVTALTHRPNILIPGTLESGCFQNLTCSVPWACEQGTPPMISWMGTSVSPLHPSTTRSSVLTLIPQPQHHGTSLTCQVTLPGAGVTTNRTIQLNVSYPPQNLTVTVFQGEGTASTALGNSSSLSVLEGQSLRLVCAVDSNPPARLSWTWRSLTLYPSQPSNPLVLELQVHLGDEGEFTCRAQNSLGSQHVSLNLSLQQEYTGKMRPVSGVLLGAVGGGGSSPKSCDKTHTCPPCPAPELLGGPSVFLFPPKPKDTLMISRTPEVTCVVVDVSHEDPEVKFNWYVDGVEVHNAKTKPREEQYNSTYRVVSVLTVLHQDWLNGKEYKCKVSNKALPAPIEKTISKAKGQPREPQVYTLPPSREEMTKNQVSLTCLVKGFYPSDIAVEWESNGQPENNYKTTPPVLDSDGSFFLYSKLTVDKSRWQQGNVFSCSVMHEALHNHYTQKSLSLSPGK
T11 sequence (chain, as listed by the source limits assumed): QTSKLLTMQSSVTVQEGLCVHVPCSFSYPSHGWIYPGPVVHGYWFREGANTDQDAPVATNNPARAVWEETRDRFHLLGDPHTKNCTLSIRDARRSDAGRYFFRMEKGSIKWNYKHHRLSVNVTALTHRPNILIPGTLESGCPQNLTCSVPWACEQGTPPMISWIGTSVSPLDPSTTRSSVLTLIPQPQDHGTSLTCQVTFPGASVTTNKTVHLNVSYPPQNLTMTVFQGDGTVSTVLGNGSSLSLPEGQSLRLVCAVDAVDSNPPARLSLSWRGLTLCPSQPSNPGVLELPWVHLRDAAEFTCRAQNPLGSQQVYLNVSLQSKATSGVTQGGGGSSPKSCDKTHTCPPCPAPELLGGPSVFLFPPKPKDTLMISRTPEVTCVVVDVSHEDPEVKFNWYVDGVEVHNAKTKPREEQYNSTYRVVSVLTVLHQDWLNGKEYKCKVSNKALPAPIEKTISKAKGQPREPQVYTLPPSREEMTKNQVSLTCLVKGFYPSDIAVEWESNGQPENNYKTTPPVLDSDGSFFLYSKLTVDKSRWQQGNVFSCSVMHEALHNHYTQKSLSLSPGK

Row | binding result (Human Siglec-7 [1]) | binding result (Human Siglec-9 mutant M2) | binding result (Human Siglec-9 mutant M5) | binding result (Human Siglec-9 mutant M9 [2]) | binding result [3] | binding result [4] | fold change of EC50 after neuraminidase treatment of moDC (Human Siglec-9 [5]) | binding result [6] | EC50 (Human Siglec-9 [7]) | EC50 (Human Siglec-9 [8]) | EC50 (Human Siglec-7 [9]) | EC50 (Human Siglec-9 [10]) | EC50 (Cynomolgus Siglec) | binding result (Human Siglec-9 mutant M9 [11]) | binding result [12] | binding result [13] | IC50 (read off the curve) (Siglec-7 Fc protein) | binding result (Siglec-9 Fc protein) | Binder
1 | no binding | binds | binds | binds | binds | binds | 10 fold | binds | 0.0282 µg/mL | 0.232 µg/mL | – | – | – | – | – | – | – | – | B1
2 | no binding | binds | binds | binds | binds | binds | 10 fold | binds | 0.0274 µg/mL | 0.196 µg/mL | – | – | – | – | – | – | – | – | B2
3 | – | binds | binds | – | – | – | – | binds | – | – | 0.21 µg/mL | 0.11 µg/mL | 0.67 µg/mL | no binding | no binding | no binding | ~3 µg/mL | – | B3
4 | – | binds | binds | – | – | – | – | binds | – | – | 0.17 µg/mL | 0.08 µg/mL | 0.53 µg/mL | no binding | no binding | no binding | – | – | B4
5 | – | binds | binds | – | – | – | – | binds | – | – | 0.22 µg/mL | 0.23 µg/mL | 0.85 µg/mL | no binding | no binding | no binding | – | binds | B5
6 | no binding | binds | binds | binds | binds | binds | – | binds | – | – | – | – | – | – | – | – | – | – | B6
7 | no binding | binds | binds | – | – | – | – | binds | – | – | – | – | – | no binding | no binding | no binding | – | – | B7
8 | no binding | binds | binds | – | – | – | – | binds | – | – | – | – | – | no binding | no binding | no binding | – | – | B8
